20 molecules from US20160159924A1 (Novo Nordisk, published 2016) can be followed below.

The Kd is the free concentration of one partner at which half of the binding sites on the other are occupied at equilibrium, for simple one-to-one binding.

B1: rec0266-0000-0010-VH_D98E (antibody, mouse IgG1, V domains shown)
VH: DVKLVESGGGLVKPGGSLKLSCVASGFTFSSYTMSWVRQTPEKRLEWVATISGGGSHIYYADSVKGRFTISRDNAKNTLYLQMSSLKSEDTAIYYCTRDGREGSWFAYWGQGTLVTVSA
VL: DIVMTQSPATLSVTPGDRVSLSCRTSQSIGDYLHWYQQKSHESPRLLIKYVSQSISGIPSRFSGSGSGSDFTLSINSVESEDVGVYYCQNSHSFPLTFGSGTKLELKR
B2: rec0266-0000-0010-VH_D98L (antibody, mouse IgG1, V domains shown)
VH: DVKLVESGGGLVKPGGSLKLSCVASGFTFSSYTMSWVRQTPEKRLEWVATISGGGSHIYYADSVKGRFTISRDNAKNTLYLQMSSLKSEDTAIYYCTRDGRLGSWFAYWGQGTLVTVSA
VL: DIVMTQSPATLSVTPGDRVSLSCRTSQSIGDYLHWYQQKSHESPRLLIKYVSQSISGIPSRFSGSGSGSDFTLSINSVESEDVGVYYCQNSHSFPLTFGSGTKLELKR
B3: rec0266-0000-0010-VH_D98V (antibody, mouse IgG1, V domains shown)
VH: DVKLVESGGGLVKPGGSLKLSCVASGFTFSSYTMSWVRQTPEKRLEWVATISGGGSHIYYADSVKGRFTISRDNAKNTLYLQMSSLKSEDTAIYYCTRDGRVGSWFAYWGQGTLVTVSA
VL: DIVMTQSPATLSVTPGDRVSLSCRTSQSIGDYLHWYQQKSHESPRLLIKYVSQSISGIPSRFSGSGSGSDFTLSINSVESEDVGVYYCQNSHSFPLTFGSGTKLELKR
B4: rec0266-0000-0010-VH_G96A (antibody, mouse IgG1, V domains shown)
VH: DVKLVESGGGLVKPGGSLKLSCVASGFTFSSYTMSWVRQTPEKRLEWVATISGGGSHIYYADSVKGRFTISRDNAKNTLYLQMSSLKSEDTAIYYCTRDARDGSWFAYWGQGTLVTVSA
VL: DIVMTQSPATLSVTPGDRVSLSCRTSQSIGDYLHWYQQKSHESPRLLIKYVSQSISGIPSRFSGSGSGSDFTLSINSVESEDVGVYYCQNSHSFPLTFGSGTKLELKR
B5: rec0266-0000-0010-VH_G96F (antibody, mouse IgG1, V domains shown)
VH: DVKLVESGGGLVKPGGSLKLSCVASGFTFSSYTMSWVRQTPEKRLEWVATISGGGSHIYYADSVKGRFTISRDNAKNTLYLQMSSLKSEDTAIYYCTRDFRDGSWFAYWGQGTLVTVSA
VL: DIVMTQSPATLSVTPGDRVSLSCRTSQSIGDYLHWYQQKSHESPRLLIKYVSQSISGIPSRFSGSGSGSDFTLSINSVESEDVGVYYCQNSHSFPLTFGSGTKLELKR
B6: rec0266-0000-0010-VH_D98I (antibody, mouse IgG1, V domains shown)
VH: DVKLVESGGGLVKPGGSLKLSCVASGFTFSSYTMSWVRQTPEKRLEWVATISGGGSHIYYADSVKGRFTISRDNAKNTLYLQMSSLKSEDTAIYYCTRDGRIGSWFAYWGQGTLVTVSA
VL: DIVMTQSPATLSVTPGDRVSLSCRTSQSIGDYLHWYQQKSHESPRLLIKYVSQSISGIPSRFSGSGSGSDFTLSINSVESEDVGVYYCQNSHSFPLTFGSGTKLELKR
B7: rec0266-0000-0010-VH_G96L (antibody, mouse IgG1, V domains shown)
VH: DVKLVESGGGLVKPGGSLKLSCVASGFTFSSYTMSWVRQTPEKRLEWVATISGGGSHIYYADSVKGRFTISRDNAKNTLYLQMSSLKSEDTAIYYCTRDLRDGSWFAYWGQGTLVTVSA
VL: DIVMTQSPATLSVTPGDRVSLSCRTSQSIGDYLHWYQQKSHESPRLLIKYVSQSISGIPSRFSGSGSGSDFTLSINSVESEDVGVYYCQNSHSFPLTFGSGTKLELKR
B8: rec0266-0000-0010-VH_D98S (antibody, mouse IgG1, V domains shown)
VH: DVKLVESGGGLVKPGGSLKLSCVASGFTFSSYTMSWVRQTPEKRLEWVATISGGGSHIYYADSVKGRFTISRDNAKNTLYLQMSSLKSEDTAIYYCTRDGRSGSWFAYWGQGTLVTVSA
VL: DIVMTQSPATLSVTPGDRVSLSCRTSQSIGDYLHWYQQKSHESPRLLIKYVSQSISGIPSRFSGSGSGSDFTLSINSVESEDVGVYYCQNSHSFPLTFGSGTKLELKR
B9: rec0266-0000-0010-VH_D98T (antibody, mouse IgG1, V domains shown)
VH: DVKLVESGGGLVKPGGSLKLSCVASGFTFSSYTMSWVRQTPEKRLEWVATISGGGSHIYYADSVKGRFTISRDNAKNTLYLQMSSLKSEDTAIYYCTRDGRTGSWFAYWGQGTLVTVSA
VL: DIVMTQSPATLSVTPGDRVSLSCRTSQSIGDYLHWYQQKSHESPRLLIKYVSQSISGIPSRFSGSGSGSDFTLSINSVESEDVGVYYCQNSHSFPLTFGSGTKLELKR
B10: rec0266-0000-0010-VH_G96I (antibody, mouse IgG1, V domains shown)
VH: DVKLVESGGGLVKPGGSLKLSCVASGFTFSSYTMSWVRQTPEKRLEWVATISGGGSHIYYADSVKGRFTISRDNAKNTLYLQMSSLKSEDTAIYYCTRDIRDGSWFAYWGQGTLVTVSA
VL: DIVMTQSPATLSVTPGDRVSLSCRTSQSIGDYLHWYQQKSHESPRLLIKYVSQSISGIPSRFSGSGSGSDFTLSINSVESEDVGVYYCQNSHSFPLTFGSGTKLELKR
B11: rec0266-0000-0010-VH_D98H (antibody, mouse IgG1, V domains shown)
VH: DVKLVESGGGLVKPGGSLKLSCVASGFTFSSYTMSWVRQTPEKRLEWVATISGGGSHIYYADSVKGRFTISRDNAKNTLYLQMSSLKSEDTAIYYCTRDGRHGSWFAYWGQGTLVTVSA
VL: DIVMTQSPATLSVTPGDRVSLSCRTSQSIGDYLHWYQQKSHESPRLLIKYVSQSISGIPSRFSGSGSGSDFTLSINSVESEDVGVYYCQNSHSFPLTFGSGTKLELKR
B12: rec0266-0000-0010-VH_D98G (antibody, mouse IgG1, V domains shown)
VH: DVKLVESGGGLVKPGGSLKLSCVASGFTFSSYTMSWVRQTPEKRLEWVATISGGGSHIYYADSVKGRFTISRDNAKNTLYLQMSSLKSEDTAIYYCTRDGRGGSWFAYWGQGTLVTVSA
VL: DIVMTQSPATLSVTPGDRVSLSCRTSQSIGDYLHWYQQKSHESPRLLIKYVSQSISGIPSRFSGSGSGSDFTLSINSVESEDVGVYYCQNSHSFPLTFGSGTKLELKR
B13: rec0266-0000-0010-VH_G96H (antibody, mouse IgG1, V domains shown)
VH: DVKLVESGGGLVKPGGSLKLSCVASGFTFSSYTMSWVRQTPEKRLEWVATISGGGSHIYYADSVKGRFTISRDNAKNTLYLQMSSLKSEDTAIYYCTRDHRDGSWFAYWGQGTLVTVSA
VL: DIVMTQSPATLSVTPGDRVSLSCRTSQSIGDYLHWYQQKSHESPRLLIKYVSQSISGIPSRFSGSGSGSDFTLSINSVESEDVGVYYCQNSHSFPLTFGSGTKLELKR
B14: rec0266-0000-0010-VH_G96K (antibody, mouse IgG1, V domains shown)
VH: DVKLVESGGGLVKPGGSLKLSCVASGFTFSSYTMSWVRQTPEKRLEWVATISGGGSHIYYADSVKGRFTISRDNAKNTLYLQMSSLKSEDTAIYYCTRDKRDGSWFAYWGQGTLVTVSA
VL: DIVMTQSPATLSVTPGDRVSLSCRTSQSIGDYLHWYQQKSHESPRLLIKYVSQSISGIPSRFSGSGSGSDFTLSINSVESEDVGVYYCQNSHSFPLTFGSGTKLELKR
B15: rec0266-0000-0010-VH_D98K (antibody, mouse IgG1, V domains shown)
VH: DVKLVESGGGLVKPGGSLKLSCVASGFTFSSYTMSWVRQTPEKRLEWVATISGGGSHIYYADSVKGRFTISRDNAKNTLYLQMSSLKSEDTAIYYCTRDGRKGSWFAYWGQGTLVTVSA
VL: DIVMTQSPATLSVTPGDRVSLSCRTSQSIGDYLHWYQQKSHESPRLLIKYVSQSISGIPSRFSGSGSGSDFTLSINSVESEDVGVYYCQNSHSFPLTFGSGTKLELKR
B16: rec0266-0000-0010-VH_G96E (antibody, mouse IgG1, V domains shown)
VH: DVKLVESGGGLVKPGGSLKLSCVASGFTFSSYTMSWVRQTPEKRLEWVATISGGGSHIYYADSVKGRFTISRDNAKNTLYLQMSSLKSEDTAIYYCTRDERDGSWFAYWGQGTLVTVSA
VL: DIVMTQSPATLSVTPGDRVSLSCRTSQSIGDYLHWYQQKSHESPRLLIKYVSQSISGIPSRFSGSGSGSDFTLSINSVESEDVGVYYCQNSHSFPLTFGSGTKLELKR
B17: rec0266-0000-0010-VH_D98F (antibody, mouse IgG1, V domains shown)
VH: DVKLVESGGGLVKPGGSLKLSCVASGFTFSSYTMSWVRQTPEKRLEWVATISGGGSHIYYADSVKGRFTISRDNAKNTLYLQMSSLKSEDTAIYYCTRDGRFGSWFAYWGQGTLVTVSA
VL: DIVMTQSPATLSVTPGDRVSLSCRTSQSIGDYLHWYQQKSHESPRLLIKYVSQSISGIPSRFSGSGSGSDFTLSINSVESEDVGVYYCQNSHSFPLTFGSGTKLELKR
B18: rec0266-0000-0010-VH_D98R (antibody, mouse IgG1, V domains shown)
VH: DVKLVESGGGLVKPGGSLKLSCVASGFTFSSYTMSWVRQTPEKRLEWVATISGGGSHIYYADSVKGRFTISRDNAKNTLYLQMSSLKSEDTAIYYCTRDGRRGSWFAYWGQGTLVTVSA
VL: DIVMTQSPATLSVTPGDRVSLSCRTSQSIGDYLHWYQQKSHESPRLLIKYVSQSISGIPSRFSGSGSGSDFTLSINSVESEDVGVYYCQNSHSFPLTFGSGTKLELKR
B19: rec0266-0000-0010-VH_D98P (antibody, mouse IgG1, V domains shown)
VH: DVKLVESGGGLVKPGGSLKLSCVASGFTFSSYTMSWVRQTPEKRLEWVATISGGGSHIYYADSVKGRFTISRDNAKNTLYLQMSSLKSEDTAIYYCTRDGRPGSWFAYWGQGTLVTVSA
VL: DIVMTQSPATLSVTPGDRVSLSCRTSQSIGDYLHWYQQKSHESPRLLIKYVSQSISGIPSRFSGSGSGSDFTLSINSVESEDVGVYYCQNSHSFPLTFGSGTKLELKR
B20: rec0266-0000-0010-VH_D98Y (antibody, mouse IgG1, V domains shown)
VH: DVKLVESGGGLVKPGGSLKLSCVASGFTFSSYTMSWVRQTPEKRLEWVATISGGGSHIYYADSVKGRFTISRDNAKNTLYLQMSSLKSEDTAIYYCTRDGRYGSWFAYWGQGTLVTVSA
VL: DIVMTQSPATLSVTPGDRVSLSCRTSQSIGDYLHWYQQKSHESPRLLIKYVSQSISGIPSRFSGSGSGSDFTLSINSVESEDVGVYYCQNSHSFPLTFGSGTKLELKR

For this assay, the target named is T1, recombinant human sc-uPA (human, UniProt P00749 21-431).
T1 construct: 411 amino acid single-chain zymogen expressed in HEK293; the 20-residue signal peptide is not present in the mature protein; also called human single-chain uPA; pro-uPA
As to the kind of experiment: SPR, mAb immobilised. How it is done:
The binding affinity to recombinant human sc-uPA protein (SEQ ID NO:1) was measured by surface plasmon resonance (SPR).
The experiments were performed on a Biacore™ instrument (GE Healthcare) and analysed with the BIAcore 4000 Evaluation Software. Anti-human uPA mAb variants were directly immobilized at 150-600 RU on flow cells of a CM5 sensor chip (GE Healthcare; cat. # BR-1000-12) via amine coupling, respectively. Recombinant human sc-uPA was diluted in HBS-N (GE Healthcare Cat BR-1006-70) with 1% BSA buffer with a dilution factor 3× ranging 1000-0.13 nM. Recombinant human sc-uPA was injected for 60 s, followed by a 600 s dissociation phase. Binding curves were measured at 25° C. with a flow rate of 30 μL/min. Regeneration of the chip surface was performed with pH1.5 Glycine for 25 s at 30 μl/min. Determination of the kinetic parameters was performed by fitting with a 1:1 binding model. Binding affinities were calculated and are stated in Table 17 below.
Background: SPR reads the build-up and loss of mass on a sensor chip optically.
Take B1: the Kd turned out to be 4.9 nM.
With B2 the figure was 2 nM.
In the case of B3, the Kd was 2.1 nM.
With B4 the figure was 1.5 nM; with B5, 7.2 nM.
With B6 the figure was 2 nM; with B7, 1.9 nM.
Then B8, with 14 nM.
With B9, the Kd is 2.2 nM.
With B10 the figure was 1.8 nM; with B11, 1.7 nM.
In the case of B12, the equilibrium dissociation constant (Kd) was found to be 2.4 nM.
With B13 the figure was 5.8 nM.
Turning to B14, the Kd was determined as 0.95 nM.
Then B15, with 2 nM; and B16, with 2.3 nM; and B17, with 1.5 nM.
Regarding B18, the Kd was determined as 1.1 nM.
With B19 the figure was 0.98 nM.
Consider B20, for which the Kd was 1.8 nM.
